Measured values taken from IntAct's records for PubMed 19172752.

B1: General transcription factor IIH subunit 4 (Homo sapiens), Q92759 (parent)
chain: MESTPSRGLNRVHLQCRNLQEFLGGLSPGVLDRLYGHPATCLAVFRELPSLAKNWVMRMLFLEQPLPQAAVALWVKKEFSKAQEESTGLLSGLRIWHTQLLPGGLQGLILNPIFRQNLRIALLGGGKAWSDDTSQLGPDKHARDVPSLDKYAEERWEVVLHFMVGSPSAAVSQDLAQLLSQAGLMKSTEPGEPPCITSAGFQFLLLDTPAQLWYFMLQYLQTAQSRGMDLVEILSFLFQLSFSTLGKDYSVEGMSDSLLNFLQHLREFGLVFQRKRKSRRYYPTRLAINLSSGVSGAGGTVHQPGFIVVETNYRLYAYTESELQIALIALFSEMLYRFPNMVVAQVTRESVQQAIASGITAQQIIHFLRTRAHPVMLKQTPVLPPTITDQIRLWELERDRLRFTEGVLYNQFLSQVDFELLLAHARELGVLVFENSAKRLMVVTPAGHSDVKRFWKRQKHSS
partner: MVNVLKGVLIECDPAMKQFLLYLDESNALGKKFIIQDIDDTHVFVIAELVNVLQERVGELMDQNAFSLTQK

Variants of: B1
Conditions: with tf2h5_human GTF2H5, Q6ZYL4

Variant | effect of a mutation on the interaction
K438A;R439A | decreasing interaction
